Source: patent publication US20020147170A1 (priority 2000, published 2002)

B1: Asp142Ala mutant: α1 adrenergic receptor DRY motif mutant (protein, UniProt P18841 1-515, looked up, variant D142A)
Alpha-1B adrenergic receptor: MNPDLDTGHNTSAPAQWGELKDANFTGPNQTSSNSTLPQLDVTRAISVGLVLGAFILFAIVGNILVILSVACNRHLRTPTNYFIVNLAIADLLLSFTVLPFSATLEVLGYWVLGRIFCDIWAAVDVLCCTASILSLCAISIARYIGVRYSLQYPTLVTRRKAILALLSVWVLSTVISIGPLLGWKEPAPNDDKECGVTEEPFYALFSSLGSFYIPLAVILVMYCRVYIVAKRTTKNLEAGVMKEMSNSKELTLRIHSKNFHEDTLSSTKAKGHNPRSSIAVKLFKFSREKKAAKTLGIVVGMFILCWLPFFIALPLGSLFSTLKPPDAVFKVVFWLGYFNSCLNPIIYPCSSKEFKRAFMRILGCQCRSGRRRRRRRRLGACAYTYRPWTRGGSLERSQSRKDSLDDSGSCMSGSQRTLPSASPSPGYLGRGAQPPLELCAYPEWKSGALLSLPEPPGRRGRLDSGPLFTFKLLGEPESPGTEGDASNGGCDATTDLANGQPGFKSNMPLAPGHF
B2: Arg143Lys mutant: α1 adrenergic receptor DRY motif mutant (protein, UniProt P18841 1-515, looked up, variant R143K)
Alpha-1B adrenergic receptor: MNPDLDTGHNTSAPAQWGELKDANFTGPNQTSSNSTLPQLDVTRAISVGLVLGAFILFAIVGNILVILSVACNRHLRTPTNYFIVNLAIADLLLSFTVLPFSATLEVLGYWVLGRIFCDIWAAVDVLCCTASILSLCAISIDKYIGVRYSLQYPTLVTRRKAILALLSVWVLSTVISIGPLLGWKEPAPNDDKECGVTEEPFYALFSSLGSFYIPLAVILVMYCRVYIVAKRTTKNLEAGVMKEMSNSKELTLRIHSKNFHEDTLSSTKAKGHNPRSSIAVKLFKFSREKKAAKTLGIVVGMFILCWLPFFIALPLGSLFSTLKPPDAVFKVVFWLGYFNSCLNPIIYPCSSKEFKRAFMRILGCQCRSGRRRRRRRRLGACAYTYRPWTRGGSLERSQSRKDSLDDSGSCMSGSQRTLPSASPSPGYLGRGAQPPLELCAYPEWKSGALLSLPEPPGRRGRLDSGPLFTFKLLGEPESPGTEGDASNGGCDATTDLANGQPGFKSNMPLAPGHF
B3: Asn63Ala mutant: α1 adrenergic receptor mutant at conserved Asn63 (protein, UniProt P18841 1-515, looked up, variant N63A)
Alpha-1B adrenergic receptor: MNPDLDTGHNTSAPAQWGELKDANFTGPNQTSSNSTLPQLDVTRAISVGLVLGAFILFAIVGAILVILSVACNRHLRTPTNYFIVNLAIADLLLSFTVLPFSATLEVLGYWVLGRIFCDIWAAVDVLCCTASILSLCAISIDRYIGVRYSLQYPTLVTRRKAILALLSVWVLSTVISIGPLLGWKEPAPNDDKECGVTEEPFYALFSSLGSFYIPLAVILVMYCRVYIVAKRTTKNLEAGVMKEMSNSKELTLRIHSKNFHEDTLSSTKAKGHNPRSSIAVKLFKFSREKKAAKTLGIVVGMFILCWLPFFIALPLGSLFSTLKPPDAVFKVVFWLGYFNSCLNPIIYPCSSKEFKRAFMRILGCQCRSGRRRRRRRRLGACAYTYRPWTRGGSLERSQSRKDSLDDSGSCMSGSQRTLPSASPSPGYLGRGAQPPLELCAYPEWKSGALLSLPEPPGRRGRLDSGPLFTFKLLGEPESPGTEGDASNGGCDATTDLANGQPGFKSNMPLAPGHF
B4: Ala204Val mutant: α1 adrenergic receptor mutant in transmembrane domain V (protein, UniProt P18841 1-515, looked up, variant A204V)
Alpha-1B adrenergic receptor: MNPDLDTGHNTSAPAQWGELKDANFTGPNQTSSNSTLPQLDVTRAISVGLVLGAFILFAIVGNILVILSVACNRHLRTPTNYFIVNLAIADLLLSFTVLPFSATLEVLGYWVLGRIFCDIWAAVDVLCCTASILSLCAISIDRYIGVRYSLQYPTLVTRRKAILALLSVWVLSTVISIGPLLGWKEPAPNDDKECGVTEEPFYVLFSSLGSFYIPLAVILVMYCRVYIVAKRTTKNLEAGVMKEMSNSKELTLRIHSKNFHEDTLSSTKAKGHNPRSSIAVKLFKFSREKKAAKTLGIVVGMFILCWLPFFIALPLGSLFSTLKPPDAVFKVVFWLGYFNSCLNPIIYPCSSKEFKRAFMRILGCQCRSGRRRRRRRRLGACAYTYRPWTRGGSLERSQSRKDSLDDSGSCMSGSQRTLPSASPSPGYLGRGAQPPLELCAYPEWKSGALLSLPEPPGRRGRLDSGPLFTFKLLGEPESPGTEGDASNGGCDATTDLANGQPGFKSNMPLAPGHF
B5: Ala293Glu mutant: α1 adrenergic receptor mutant at carboxyl end of IC3 (protein, UniProt P18841 1-515, looked up, variant A293E)
Alpha-1B adrenergic receptor: MNPDLDTGHNTSAPAQWGELKDANFTGPNQTSSNSTLPQLDVTRAISVGLVLGAFILFAIVGNILVILSVACNRHLRTPTNYFIVNLAIADLLLSFTVLPFSATLEVLGYWVLGRIFCDIWAAVDVLCCTASILSLCAISIDRYIGVRYSLQYPTLVTRRKAILALLSVWVLSTVISIGPLLGWKEPAPNDDKECGVTEEPFYALFSSLGSFYIPLAVILVMYCRVYIVAKRTTKNLEAGVMKEMSNSKELTLRIHSKNFHEDTLSSTKAKGHNPRSSIAVKLFKFSREKKAEKTLGIVVGMFILCWLPFFIALPLGSLFSTLKPPDAVFKVVFWLGYFNSCLNPIIYPCSSKEFKRAFMRILGCQCRSGRRRRRRRRLGACAYTYRPWTRGGSLERSQSRKDSLDDSGSCMSGSQRTLPSASPSPGYLGRGAQPPLELCAYPEWKSGALLSLPEPPGRRGRLDSGPLFTFKLLGEPESPGTEGDASNGGCDATTDLANGQPGFKSNMPLAPGHF
B6: Cys128Phe mutant: α1 adrenergic receptor mutant in transmembrane domain III (protein, UniProt P18841 1-515, looked up, variant C128F)
Alpha-1B adrenergic receptor: MNPDLDTGHNTSAPAQWGELKDANFTGPNQTSSNSTLPQLDVTRAISVGLVLGAFILFAIVGNILVILSVACNRHLRTPTNYFIVNLAIADLLLSFTVLPFSATLEVLGYWVLGRIFCDIWAAVDVLFCTASILSLCAISIDRYIGVRYSLQYPTLVTRRKAILALLSVWVLSTVISIGPLLGWKEPAPNDDKECGVTEEPFYALFSSLGSFYIPLAVILVMYCRVYIVAKRTTKNLEAGVMKEMSNSKELTLRIHSKNFHEDTLSSTKAKGHNPRSSIAVKLFKFSREKKAAKTLGIVVGMFILCWLPFFIALPLGSLFSTLKPPDAVFKVVFWLGYFNSCLNPIIYPCSSKEFKRAFMRILGCQCRSGRRRRRRRRLGACAYTYRPWTRGGSLERSQSRKDSLDDSGSCMSGSQRTLPSASPSPGYLGRGAQPPLELCAYPEWKSGALLSLPEPPGRRGRLDSGPLFTFKLLGEPESPGTEGDASNGGCDATTDLANGQPGFKSNMPLAPGHF
B7: wild-type rat mu opioid receptor: wild-type rat mu opioid receptor expressed from an expression vector, comparator (protein, UniProt P33535 1-398, looked up)
Mu-type opioid receptor: MDSSTGPGNTSDCSDPLAQASCSPAPGSWLNLSHVDGNQSDPCGLNRTGLGGNDSLCPQTGSPSMVTAITIMALYSIVCVVGLFGNFLVMYVIVRYTKMKTATNIYIFNLALADALATSTLPFQSVNYLMGTWPFGTILCKIVISIDYYNMFTSIFTLCTMSVDRYIAVCHPVKALDFRTPRNAKIVNVCNWILSSAIGLPVMFMATTKYRQGSIDCTLTFSHPTWYWENLLKICVFIFAFIMPVLIITVCYGLMILRLKSVRMLSGSKEKDRNLRRITRMVLVVVAVFIVCWTPIHIYVIIKALITIPETTFQTVSWHFCIALGYTNSCLNPVLYAFLDENFKRCFREFCIPTSSTIEQQNSTRVRQNTREHPSTANTVDRTNHQLENLEAETAPLP

Experiments:
α1 adrenergic receptor = conditions: cited from earlier work
rat mu opioid receptor = experiment: SRE-Luc/Gq5i luciferase reporter assay in HEK293 cells; assay type: cell-based; conditions: SRE + Gq5i, HEK293 cells
From the text: A positive assay for Gαi coupling (i.e., one that yields an increase in luciferase activity upon receptor activation, instead of a negative assay, one that yields a decrease in luciferase activity upon receptor activation), provides a detectable output signal and less interassay variation. It was hypothesized that Gαi coupling could be detected by altering the signaling pathway generated by Gαi coupled receptors. A chimeric G protein (Gqi5, Broach and Thorner, Nature 384 (Suppl.): 14-16 (1996)) that contains the entire Gαq protein having five C-terminal amino acids from Gαi attached to the C-terminus of Gαq has been generated. This chimeric G protein is recognized as Gαi by Gαi coupled receptors, but switches the receptor induced signaling from Gαi to Gαq. This allows Gαi receptor coupling to be detected using a positive assay by use of the Gαq responsive SMS-Luc or SRE-Luc construct (Stratagene, La Jolla, Calif.). SMS and SRE preferably respond to Gαq mediated inositol and calcium production. Moreover, detection can be carried out in the absence of forskolin pre-stimulation of cells.
Reagents & Solutions: The cell culture media used in the assays described below was Gibco BRL #12100-046. This media was made according to manufacturer's recipe, pH adjusted to 7.2, filtered (0.22 micron pore), and supplemented with 1% Pen/Strep (Gibco #15140-122; 100% penicillin G 10,000 units/ml, and streptomycin 10,000 μg/ml) and 10% fetal bovine serum. Cell culture media lacking 10% fetal bovine serum was also generated. DNA used in the transfection experiments was purified and quantitated by measuring the absorbance at OD260. A LucLite Luciferase Assay Kit (Packard) was used to quantitate luciferase activity. Transfections were carried out using LipofectAMINE Reagent (Gibco #18324-012).
The rat mu opioid receptor is a Gαi coupled receptor. Therefore we chose to use the Gq5i reporter system, described in detail above (Broach and Thorner, supra), which switches the signaling pathway from Gαi to Gαq for reliable positive readout. HEK293 cells were transfected with the reporter construct SRE-Luc, an expression vector containing nucleic acid encoding Gq5i (Broach and Thorner, supra), and an expression vector containing nucleic acid encoding either the wild-type or the Asn150Ala mutant rat mu opioid receptor. Basal and ligand-stimulated luciferase activity was measured. The ligand used in this assay was [D—Ala^2—MePhe^4, Gly-ol^5]enkephalin] (DAMGO). As a negative control, HEK293 cells were transfected with pcDNA1 (empty vector DNA), SRE-Luc, and the expression vector containing nucleic acid encoding Gq5i (Broach and Thorner, supra).
The luciferase assay was carried out as follows. On day 1, HEK293 cells in a T75 flask were washed with 15 ml serum-free media (or PBS), trypsinized with 5 ml 0.05% trypsin-EDTA (Gibco #25300-062), incubated at 37° C. for 3 minutes at which time 6-7 ml complete HEK293 media (Gibco #12100-046) and 10% Fetal Bovine Serum (Intergen #1050-90) were added. Thereafter, cells were collected in 50 ml centrifuge tubes, pelleted at 800-900 rpm (RCF˜275), and resuspend in 20 ml complete media. The cells were counted using a haemocytometer and diluted to 85,000 cells/ml in complete media. Using a repeat pipettor or cell plater, 100 μl of cells were added to each well of a Primaria 96-well plate (Falcon #353872). Cells were then incubated at 37° C., 5% CO2 until use at 48 hours.
On day 3, cells were transfected using LipofectAMINE™ according to the manufacturer's protocol (Gibco #18324-012, Rockville, Md.).
On day 4, cells were stimulated as follows. Ligands for the receptor, either DAMGO or a non-peptide ligand (e.g., naloxone or naltrexone), were diluted to a desired concentration in serum-free media containing 0.15 mM PMSF (or other protease inhibitor(s)). […]

| Molecule | constitutive activity (α1 adrenergic receptor) | Average Ligand Stimulated Activity (Light Emission) (rat mu opioid receptor; ligand DAMGO) | Average Basal Activity (Light Emission) (rat mu opioid receptor; no ligand) |
| --- | --- | --- | --- |
| B1 | constitutively active |  |  |
| B2 | constitutively active |  |  |
| B3 | constitutively active |  |  |
| B4 | constitutively active |  |  |
| B5 | constitutively active |  |  |
| B6 | constitutively active |  |  |
| B7 |  | 87,461 | 8,436 |
